US20170204176A1 (MacroGenics, published 2017)

B1: DR5 mAb 1×CD3 mAb 2 diabody (bispecific antibody)
chain 1: DIVLTQSPASLAVSLGQRATISCRASKSVSSSGYSYMHWYQQKPGQPPKVLIFLSSNLDSGVPARFSGSGSGTDFTLNIHPVEDGDAATYYCQHSRDLPPTFGGGTKLEIKGGGSGGGGEVQLVESGGGLVQPGGSLRLSCAASGFTFSTYAMNWVRQAPGKGLEWVGRIRSKYNNYATYYADSVKGRFTISRDDSKNSLYLQMNSLKTEDTAVYYCVRHGNFGNSYVSWFAYWGQGTLVTVSSASTKGEVAACEKEVAALEKEVAALEKEVAALEK
chain 2: QAVVTQEPSLTVSPGGTVTLTCRSSTGAVTTSNYANWVQQKPGQAPRGLIGGTNKRAPWTPARFSGSLLGGKAALTITGAQAEDEADYYCALWYSNLWVFGGGTKLTVLGGGGSGGGGEVKFLESGGGLVQPGGSLKLSCVASGFDFSRYWMSWVRQAPGKGLEWIGEINPDSNTINYTPSLKDKFIISRDNAKNTLYLQMTKVRSEDTALYYCTRRAYYGNPAWFAYWGQGTLVTVSAASTKGKVAACKEKVAALKEKVAALKEKVAALKE
notes: Two-chain bi-specific DR5×CD3 diabody
B2: EphA2 mAb 1×CD3 mAb 2×DR5 mAb 1 (other)
chain 1: DIQMTQTTSSLSASLGDRITISCRASQDISNYLNWYQQKPDGTVKLLIYYTSRLHSGVPSRFSGSGSGTDYSLTISNLEQEDIATYFCQQGYTLYTFGGGTKLEIKGGGSGGGGEVQLVESGGGLVQPGGSLRLSCAASGFTFSTYAMNWVRQAPGKGLEWVGRIRSKYNNYATYYADSVKGRFTISRDDSKNSLYLQMNSLKTEDTAVYYCVRHGNFGNSYVSWFAYWGQGTLVTVSSGGCGGGEVAALEKEVAALEKEVAALEKEVAALEKGGGDKTHTCPPCPAPEAAGGPSVFLFPPKPKDTLMISRTPEVTCVVVDVSHEDPEVKFNWYVDGVEVHNAKTKPREEQYNSTYRVVSVLTVLHQDWLNGKEYKCKVSNKALPAPIEKTISKAKGQPREPQVYTLPPSREEMTKNQVSLWCLVKGFYPSDIAVEWESNGQPENNYKTTPPVLDSDGSFFLYSKLTVDKSRWQQGNVFSCSVMHEALHNHYTQKSLSLSPGK
chain 2: QAVVTQEPSLTVSPGGTVTLTCRSSTGAVTTSNYANWVQQKPGQAPRGLIGGTNKRAPWTPARFSGSLLGGKAALTITGAQAEDEADYYCALWYSNLWVFGGGTKLTVLGGGGSGGGGQVQLKESGPGLVAPSQSLSITCTVSGFSLSRYSVHWVRQPPGKGLEWLGMIWGGGSTDYNSALKSRLSISKDNSKSQVFLKMNSLQTDDTAMYYCARKHGNYYTMDYWGQGTSVTVSSGGCGGGKVAALKEKVAALKEKVAALKEKVAALKE
heavy: EVKFLESGGGLVQPGGSLKLSCVASGFDFSRYWMSWVRQAPGKGLEWIGEINPDSNTINYTPSLKDKFIISRDNAKNTLYLQMTKVRSEDTALYYCTRRAYYGNPAWFAYWGQGTLVTVSSASTKGPSVFPLAPSSKSTSGGTAALGCLVKDYFPEPVTVSWNSGALTSGVHTFPAVLQSSGLYSLSSVVTVPSSSLGTQTYICNVNHKPSNTKVDKRVEPKSCDKTHTCPPCPAPEAAGGPSVFLFPPKPKDTLMISRTPEVTCVVVDVSHEDPEVKFNWYVDGVEVHNAKTKPREEQYNSTYRVVSVLTVLHQDWLNGKEYKCKVSNKALPAPIEKTISKAKGQPREPQVYTLPPSREEMTKNQVSLSCAVKGFYPSDIAVEWESNGQPENNYKTTPPVLDSDGSFFLVSKLTVDKSRWQQGNVFSCSVMHEALHNRYTQKSLSLSPGK
light: DIVLTQSPASLAVSLGQRATISCRASKSVSSSGYSYMHWYQQKPGQPPKVLIFLSSNLDSGVPARFSGSGSGTDFTLNIHPVEDGDAATYYCQHSRDLPPTFGGGTKLEIKRTVAAPSVFIFPPSDEQLKSGTASVVCLLNNFYPREAKVQWKVDNALQSGNSQESVTEQDSKDSTYSLSSTLTLSKADYEKHKVYACEVTHQGLSSPVTKSFNRGEC
notes: a Fab-type heavy chain with hole Fc; a kappa light chain
B3: gpA33 mAb 1×CD3 mAb 2×DR5 mAb 1 (other)
chain 1: DIQLTQSPSFLSASVGDRVTITCSARSSISFMYWYQQKPGKAPKLLIYDTSNLASGVPSRFSGSGSGTEFTLTISSLEAEDAATYYCQQWSSYPLTFGQGTKLEIKGGGSGGGGEVQLVESGGGLVQPGGSLRLSCAASGFTFSTYAMNWVRQAPGKGLEWVGRIRSKYNNYATYYADSVKGRFTISRDDSKNSLYLQMNSLKTEDTAVYYCVRHGNFGNSYVSWFAYWGQGTLVTVSSGGCGGGEVAALEKEVAALEKEVAALEKEVAALEKGGGDKTHTCPPCPAPEAAGGPSVFLFPPKPKDTLMISRTPEVTCVVVDVSHEDPEVKFNWYVDGVEVHNAKTKPREEQYNSTYRVVSVLTVLHQDWLNGKEYKCKVSNKALPAPIEKTISKAKGQPREPQVYTLPPSREEMTKNQVSLWCLVKGFYPSDIAVEWESNGQPENNYKTTPPVLDSDGSFFLYSKLTVDKSRWQQGNVFSCSVMHEALHNHYTQKSLSLSPGK
chain 2: QAVVTQEPSLTVSPGGTVTLTCRSSTGAVTTSNYANWVQQKPGQAPRGLIGGTNKRAPWTPARFSGSLLGGKAALTITGAQAEDEADYYCALWYSNLWVFGGGTKLTVLGGGGSGGGGQVQLVQSGAEVKKPGASVKVSCKASGYTFTGSWMNWVRQAPGQGLEWIGRIYPGDGETNYNGKFKDRVTITADKSTSTAYMELSSLRSEDTAVYYCARIYGNNVYFDVWGQGTTVTVSSGGCGGGKVAALKEKVAALKEKVAALKEKVAALKE
heavy: B2 heavy
light: B2 light
B4: EphA2 mAb 1×CD3 mAb 2×gpA33 mAb 1 (other)
chain 1: B2 chain 1
chain 2: B2 chain 2
heavy: QVQLVQSGAEVKKPGASVKVSCKASGYTFTGSWMNWVRQAPGQGLEWIGRIYPGDGETNYNGKFKDRVTITADKSTSTAYMELSSLRSEDTAVYYCARIYGNNVYFDVWGQGTTVTVSSASTKGPSVFPLAPSSKSTSGGTAALGCLVKDYFPEPVTVSWNSGALTSGVHTFPAVLQSSGLYSLSSVVTVPSSSLGTQTYICNVNHKPSNTKVDKRVEPKSCDKTHTCPPCPAPEAAGGPSVFLFPPKPKDTLMISRTPEVTCVVVDVSHEDPEVKFNWYVDGVEVHNAKTKPREEQYNSTYRVVSVLTVLHQDWLNGKEYKCKVSNKALPAPIEKTISKAKGQPREPQVYTLPPSREEMTKNQVSLSCAVKGFYPSDIAVEWESNGQPENNYKTTPPVLDSDGSFFLVSKLTVDKSRWQQGNVFSCSVMHEALHNRYTQKSLSLSPGK
light: DIQLTQSPSFLSASVGDRVTITCSARSSISFMYWYQQKPGKAPKLLIYDTSNLASGVPSRFSGSGSGTEFTLTISSLEAEDAATYYCQQWSSYPLTFGQGTKLEIKRTVAAPSVFIFPPSDEQLKSGTASVVCLLNNFYPREAKVQWKVDNALQSGNSQESVTEQDSKDSTYSLSSTLTLSKADYEKHKVYACEVTHQGLSSPVTKSFNRGEC
B5: gpA33 mAb 1 x CD3 mAb 2 (bispecific antibody)
first polypeptide chain (VL gpA33 mAb 1 - Linker 1 - VH CD3 mAb 2 D65G - ASTKG - cysteine-containing E-coil): DIQLTQSPSFLSASVGDRVTITCSARSSISFMYWYQQKPGKAPKLLIYDTSNLASGVPSRFSGSGSGTEFTLTISSLEAEDAATYYCQQWSSYPLTFGQGTKLEIKGGGSGGGGEVQLVESGGGLVQPGGSLRLSCAASGFTFSTYAMNWVRQAPGKGLEWVGRIRSKYNNYATYYADSVKGRFTISRDDSKNSLYLQMNSLKTEDTAVYYCVRHGNFGNSYVSWFAYWGQGTLVTVSSASTKGEVAACEKEVAALEKEVAALEKEVAALEK
second polypeptide chain (VL CD3 mAb 2 - Linker 1 - VH gpA33 mAb 1 - ASTKG - cysteine-containing K-coil): QAVVTQEPSLTVSPGGTVTLTCRSSTGAVTTSNYANWVQQKPGQAPRGLIGGTNKRAPWTPARFSGSLLGGKAALTITGAQAEDEADYYCALWYSNLWVFGGGTKLTVLGGGGSGGGGQVQLVQSGAEVKKPGASVKVSCKASGYTFTGSWMNWVRQAPGQGLEWIGRIYPGDGETNYNGKFKDRVTITADKSTSTAYMELSSLRSEDTAVYYCARIYGNNVYFDVWGQGTTVTVSSASTKGKVAACKEKVAALKEKVAALKEKVAALKE

Legend:
His-tagged human DR5 = biological target: T1, His-tagged human DR5 (human, UniProt O14763 56-210, limits assumed); experiment: Biacore (SPR); DR5 mAb 1×CD3 mAb 2 diabody with His-tagged human DR5
T1 construct: whole precursor entry named; also called His-tagged DR5; not shown: His tag

[1] = biological target: T2, His-tagged cynomolgus monkey DR5 (cynomolgus monkey (Macaca fascicularis)); experiment: Biacore (SPR); DR5 mAb 1×CD3 mAb 2 diabody with His-tagged cynomolgus monkey DR5
T2 construct: also called His-tagged DR5
Protocol: Bi-specific DR5×CD3 diabodies were incubated with His-tagged DR5 and the kinetics of binding was determined via Biacore analysis.

[2] = biological target: T3, DR5 on DR5-expressing CHO cells (UniProt O14763 56-440, limits assumed); experiment: FACS on DR5-expressing CHO cells (Log MFI)
T3 construct: whole, on cells; also called DR5-expressing CHO target cells
Description: The ability of Tri-Specific Binding Molecules of the present invention to bind to target cells was investigated.

[3] = biological target: T4, EphA2 on EphA2-expressing CHO cells (UniProt P29317 24-976, limits assumed); experiment: FACS on EphA2-expressing CHO cells (Log MFI)
T4 construct: whole, on cells; EphA2 mAb 1 is called an anti-human EphA2 antibody; also called EphA2-expressing CHO target cells

[4] = biological target: T5, EphA2 on DU145 human prostate cells (human, UniProt P29317 24-976); experiment: FACS on DU145 cells (gpA33- EphA2+ DR5+), Log MFI; only the EphA2 domain has its antigen on these cells
T5 construct: whole, on cells; DU145 cells carry both EphA2 and DR5; also called DU145 cells (express EphA2 and DR5, not gpA33)

[5] = biological target: T6, DR5 on DU145 human prostate cells (human, UniProt O14763 56-440); experiment: FACS on DU145 cells (gpA33- EphA2+ DR5+), Log MFI
T6 construct: whole, on cells; DU145 cells carry both EphA2 and DR5; also called DU145 cells (express EphA2 and DR5, not gpA33)

[6] = biological target: T5, EphA2 on DU145 human prostate cells; experiment: FACS on DU145 cells (gpA33- EphA2+ DR5+), Log MFI

Binder | EC50 (read off the curve) [2] | EC50 (read off the curve) [3] | binding result [3] | binding result [2] | also measured
B1 | – | – | – | – | Kd (His-tagged human DR5): 0.14 nM; Kd [1]: 32.5 nM
B2 | ~0.9 nM | ~0.7 nM | – | – | –
B3 | ~0.9 nM | – | no binding | – | –
B4 | – | ~0.9 nM | – | no binding | EC50 (read off the curve) [4]: ~1 nM
B5 | – | – | no binding | no binding | binding result [5]: no binding; binding result [6]: no binding
